Measurements: PMC9897478

Biological target: Desulfofustis deltaproteobacterium ligand-gated ion channel (DeCLIC) (Desulfofustis deltaproteobacterium)
Assay: cryo-EM structure; DeCLIC in DDM detergent micelles, pH 7, two datasets: with 10 mM Ca2+ and Ca2+-free (chelated); C5 symmetry; homopentamer

Desulfofustis deltaproteobacterium ligand-gated ion channel (DeCLIC) (natural protein)
stoichiometry N: 5
